In paper PMC7299280:

Molecular target: SARS-CoV1-SΔ28 (SARS-CoV-1 spike protein truncated at the C terminus, on pseudovirions) (SARS-CoV-1)

Substance: CC6.33 (antibody)
- neutralization IC50 of SARS-CoV-1 pseudovirus: 0.162 µg/mL
